One substance from PMC11570694 can be followed below.

Experiment [1] has as its target recombinant TTC5 labelled with Oregon Green 488 maleimide (human) (UniProt Q8N0Z6). The experiment is described as follows: MST; 50 nM Oregon Green 488-labelled TTC5 with various porcine tubulin concentrations in 250 mM NaCl, 1 mM TCEP, 20 mM HEPES pH 7.4; duplicates.
Experiment [2] addresses endogenous TTC5 of rabbit reticulocyte lysate (rabbit (endogenous in rabbit reticulocyte lysate)) (UniProt G1SNQ6). The experiment is described as follows: cross-linking; competition: porcine brain tubulin at the indicated concentrations added to isolated β-tubulin 94-mer RNCs (Bpa at position 7) carrying endogenous TTC5, 10 min on ice in PSB, then UV; autoradiography, anti-TTC5 immunoprecipitation.

By Kd is commonly meant a measure of binding affinity in units of concentration. The Ki is the equilibrium dissociation constant of an inhibitor or competing ligand from its target.

recombinant TTC5 labelled with Oregon Green 488 maleimide (human), sequence (Q8N0Z6 whole entry): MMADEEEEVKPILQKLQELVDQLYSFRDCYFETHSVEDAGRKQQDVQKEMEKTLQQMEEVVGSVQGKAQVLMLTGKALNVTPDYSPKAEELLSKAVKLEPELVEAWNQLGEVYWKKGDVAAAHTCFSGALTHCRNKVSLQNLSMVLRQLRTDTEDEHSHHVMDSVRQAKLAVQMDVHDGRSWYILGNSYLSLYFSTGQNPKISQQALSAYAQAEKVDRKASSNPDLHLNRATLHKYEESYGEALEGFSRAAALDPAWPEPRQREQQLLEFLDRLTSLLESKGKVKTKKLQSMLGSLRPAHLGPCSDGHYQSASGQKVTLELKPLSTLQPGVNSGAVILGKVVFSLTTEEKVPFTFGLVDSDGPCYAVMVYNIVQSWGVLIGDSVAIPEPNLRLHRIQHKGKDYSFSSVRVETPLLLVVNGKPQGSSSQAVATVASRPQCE
endogenous TTC5 of rabbit reticulocyte lysate (rabbit (endogenous in rabbit reticulocyte lysate)), sequence (G1SNQ6 entry or part of it): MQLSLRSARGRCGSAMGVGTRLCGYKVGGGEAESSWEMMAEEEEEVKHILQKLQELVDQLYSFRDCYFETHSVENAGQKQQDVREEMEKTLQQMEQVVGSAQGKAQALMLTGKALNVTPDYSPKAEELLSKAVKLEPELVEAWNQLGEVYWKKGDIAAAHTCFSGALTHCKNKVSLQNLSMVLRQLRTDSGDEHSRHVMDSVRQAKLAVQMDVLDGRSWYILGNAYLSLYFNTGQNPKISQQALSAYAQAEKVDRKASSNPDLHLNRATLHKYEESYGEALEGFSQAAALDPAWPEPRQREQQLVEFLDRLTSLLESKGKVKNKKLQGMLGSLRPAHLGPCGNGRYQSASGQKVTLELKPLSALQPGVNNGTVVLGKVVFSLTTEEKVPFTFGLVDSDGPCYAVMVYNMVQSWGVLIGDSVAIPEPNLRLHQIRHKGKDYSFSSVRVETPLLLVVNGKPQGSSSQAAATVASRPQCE

As to “porcine brain αβ-tubulins (from UniProt P02550 1-451; Q767L7 1-444) (complex)”, the Kd in experiment [1] amounted to 0.5 µM. The substance further returned an inhibition constant Ki in experiment [2] of 0.5 µM.
